{"source": "patent US8642565B2", "about": "“Increase of immune response and targeting by antigens and/or drug linkage” (Wittycell, priority 2007, dated 2014)", "key": {"[1]": {"test_system": "SIINFEKL (SEQ ID NO:1) induced CD8+ T cell response; SINFEKL-loaded targets", "experiment": "VITAL in vivo cytotoxicity assay, intravenous immunization (Example 1)", "parameters": "species or system C57BI/6J CD45.2 female mice", "settings": "1 μg to 100 μg of Ova peptide alone, day 0, read out day 11"}, "[2]": {"test_system": "SIINFEKL-H2K^b specific CD8+ cells", "experiment": "Detection of SIINFEKL specific CD8+ cells by FACS, H-2 Kb SIINFEKL pentamer and CD8 co-staining (Example 2)", "format": "in vivo, C57BI/6J CD45.2 female mice", "settings": "1 μg conjugate, intramuscular route, day 0 and 14; compared with mice treated with 50 μg of OVA alone (FIG. 2)", "excerpt": "Forty-eight 9 week-old C57BI/6J CD45.2 female mice were used for immunisation. They were split into 9 groups: groups 1 and 2 included 3 animals and groups 3 to 9 included six animals.\nThe ovalbumin peptide consists in the […] sequence (SEQ ID NO:2) and the glycolipids used are PBS-6, PBS-14 and PBS-57.\nThe mice were vaccinated by intramuscular route at day 0 and 14 with the following solutions according to the different groups:\nDetection of SIINFEKL specific CD8+ cells was monitored by FACS following H-2 Kb SIINFEKL pentamer and CD8 co-staining."}, "[3]": {"test_system": "OVA specific IgG1 antibodies", "experiment": "Ovalbumin-specific IgG1 antibody titer after immunization (Example 4)", "format": "in vivo, mice", "settings": "1 μg conjugate, intramuscular route, day 0 and day 14, samples 14 days after second immunization; compared with 50 μg of OVA alone (FIG. 4)", "description": "(§1) The aim of this study was to evaluate IgG1 and IgG2a antibody response following immunization with ovalbumin in combination with different adjuvant covalently linked.\n(§2) The sera tested were as follows:\n(§3) Group 1; 6 mice immunized with 500 μg of ova protein with CFA/IFA (Positive control)\n(§4) Group 2: 6 mice immunized with 50 μg of long ova peptide of sequence […] (SEQ ID NO:3; amino acids 316 to 338 of ovalbumin)\n(§5) Group 3: 6 mice immunized with 50 μg of short ova peptide of sequence KISQAVHAAHA (SEQ ID NO:4; amino acids 323 to 333 of ovalbumin)\n(§6) Group 4: 6 mice immunized with 1 μg PBS-6-OVA\n(§7) Group 5: 6 mice immunized with 1 μg PBS-14-OVA\n(§8) Group 6: 6 mice immunized with 1 μg PBS-57-OVA\n(§9) All mice were immunized by intramuscular route at day 0 and day 14. All samples were collected 14 days following the second immunization and the IgG1 and IgG2a titers specific of ovalbumin were evaluated."}, "[4]": {"test_system": "SIINFEKL (SEQ ID NO:1) induced CD8+ T cell response", "experiment": "VITAL in vivo cytotoxicity assay, intramuscular immunization, OVA (Example 3)", "parameters": "species or system C57BI/6J CD45.2 female mice", "settings": "1 μg conjugate, day 0, compared with mice treated with 50 μg of OVA alone (FIG. 3)", "description": "Sixty-nine 9 week-old C57BI/6J CD45.2 female mice were used for immunisation. They were split into 14 groups: groups 1 to 5 included 3 animals, and groups 6 to 14 included 6 animals.\nThe in vivo cytotoxicity of SIINFEKL (SEQ ID NO:1) induced CD8^+ T cell response was evaluated by VITAL assay as described in Example 1.\nThe short ovalbumin peptide consists in the SIINFEKL sequence (SEQ ID NO:1; amino acids 257 to 264 of ovalbumin), the long ovalbumin peptide consists in the […] sequence (SEQ ID NO:2; amino acids 250 to 269 of ovalbumin) and the glycolipids used are PBS-6, PBS-14 and PBS-57.\nThe mice were vaccinated by intramuscular route at day 0 with the following solutions according to the different groups:\nThe read out was as described in Example 1."}, "[5]": {"test_system": "OVA specific IgG2a antibodies", "experiment": "Ovalbumin-specific IgG2a antibody titer after immunization (Example 4)", "format": "in vivo, mice", "settings": "1 μg conjugate, intramuscular route, day 0 and day 14, samples 14 days after second immunization; compared with 50 μg of OVA alone (FIG. 5)", "description": "as §1, §2, §3, §4, §5, §6, §7, §8, §9"}}, "data": [{"molecule": "Ova peptide: ovalbumine peptide of SIINFEKL sequence (SEQ ID NO:1), amino-acids 257-264 of ovalbumine [reference compound]", "values": [{"measurement": "antigen-specific lysis (percent specific lysis)", "setting": "[1]", "value": "no antigen-specific lysis"}]}, {"molecule": "OVA covalently linked to PBS-6: Examples 2-4: ovalbumin peptide covalently linked to PBS-6 (Example 2 peptide VSGLEQLESIINFEKLTEWTS) (conjugate, UniProt P01012 2-386, looked up, covalently linked to glycolipid PBS-6) Ovalbumin: GSIGAASMEFCFDVFKELKVHHANENIFYCPIAIMSALAMVYLGAKDSTRTQINKVVRFDKLPGFGDSIEAQCGTSVNVHSSLRDILNQITKPNDVYSFSLASRLYAEERYPILPEYLQCVKELYRGGLEPINFQTAADQARELINSWVESQTNGIIRNVLQPSSVDSQTAMVLVNAIVFKGLWEKAFKDEDTQAMPFRVTEQESKPVQMMYQIGLFRVASMASEKMKILELPFASGTMSMLVLLPDEVSGLEQLESIINFEKLTEWTSSNVMEERKIKVYLPRMKMEEKYNLTSVLMAMGITDVFSSSANLSGISSAESLKISQAVHAAHAEINEAGREVVGSAEAGVDAASVSEEFRADHPFLFCIKHIATNAVLFFGRCVSP", "values": [{"measurement": "percentage of SIINFEKL-H2K^b specific CD8+ in the blood", "setting": "[2]", "value": "stronger percentage"}, {"measurement": "titer of IgG1 specific of ovalbumin", "setting": "[3]", "value": "higher titers"}, {"measurement": "percentage of SIINFEKL-specific cytolytic activity in the blood", "setting": "[4]", "value": "stronger percentage"}, {"measurement": "titer of IgG2a specific of ovalbumin", "setting": "[5]", "value": "higher titers"}]}, {"molecule": "OVA covalently linked to PBS-14 (conjugate, UniProt P01012 2-386, looked up, covalently linked to glycolipid PBS-14) Ovalbumin: GSIGAASMEFCFDVFKELKVHHANENIFYCPIAIMSALAMVYLGAKDSTRTQINKVVRFDKLPGFGDSIEAQCGTSVNVHSSLRDILNQITKPNDVYSFSLASRLYAEERYPILPEYLQCVKELYRGGLEPINFQTAADQARELINSWVESQTNGIIRNVLQPSSVDSQTAMVLVNAIVFKGLWEKAFKDEDTQAMPFRVTEQESKPVQMMYQIGLFRVASMASEKMKILELPFASGTMSMLVLLPDEVSGLEQLESIINFEKLTEWTSSNVMEERKIKVYLPRMKMEEKYNLTSVLMAMGITDVFSSSANLSGISSAESLKISQAVHAAHAEINEAGREVVGSAEAGVDAASVSEEFRADHPFLFCIKHIATNAVLFFGRCVSP", "values": [{"measurement": "percentage of SIINFEKL-H2K^b specific CD8+ in the blood", "setting": "[2]", "value": "stronger percentage"}, {"measurement": "titer of IgG1 specific of ovalbumin", "setting": "[3]", "value": "higher titers"}, {"measurement": "percentage of SIINFEKL-specific cytolytic activity in the blood", "setting": "[4]", "value": "stronger percentage"}, {"measurement": "titer of IgG2a specific of ovalbumin", "setting": "[5]", "value": "higher titers"}]}, {"molecule": "OVA covalently linked to PBS-57 (conjugate, UniProt P01012 2-386, looked up, covalently linked to glycolipid PBS-57) Ovalbumin: GSIGAASMEFCFDVFKELKVHHANENIFYCPIAIMSALAMVYLGAKDSTRTQINKVVRFDKLPGFGDSIEAQCGTSVNVHSSLRDILNQITKPNDVYSFSLASRLYAEERYPILPEYLQCVKELYRGGLEPINFQTAADQARELINSWVESQTNGIIRNVLQPSSVDSQTAMVLVNAIVFKGLWEKAFKDEDTQAMPFRVTEQESKPVQMMYQIGLFRVASMASEKMKILELPFASGTMSMLVLLPDEVSGLEQLESIINFEKLTEWTSSNVMEERKIKVYLPRMKMEEKYNLTSVLMAMGITDVFSSSANLSGISSAESLKISQAVHAAHAEINEAGREVVGSAEAGVDAASVSEEFRADHPFLFCIKHIATNAVLFFGRCVSP", "values": [{"measurement": "percentage of SIINFEKL-H2K^b specific CD8+ in the blood", "setting": "[2]", "value": "stronger percentage"}, {"measurement": "titer of IgG1 specific of ovalbumin", "setting": "[3]", "value": "higher titers"}, {"measurement": "percentage of SIINFEKL-specific cytolytic activity in the blood", "setting": "[4]", "value": "stronger percentage"}, {"measurement": "titer of IgG2a specific of ovalbumin", "setting": "[5]", "value": "higher titers"}]}]}
